Entries after “also recorded” stand apart in the source; their conditions may differ.
B1: TraP14: chimeric chloroplast transit peptide (SEQ ID NO:3): N-terminus from Dunaliella salina GPDH, C-terminus from D. salina EPSPS (protein)
chain: MILGSSPTLPHASHPARPGPARPISVNDVVPHVYSAPLSVARRSCSKSSIRSTRRLQTTVCS
modifications: chimeric TraP14 fusion protein
B2: TraP5 v2: chloroplast transit peptide fused to dgt-28 (protein)
chain: MQLLNQRQALRLGRSSASKNQQVAPLASRPASSLSVSASSVAPAPACSAPAGAGRRAVVVRA
modifications: Chloroplast Transit Peptide

Assays:
[1] = system: chloroplasts of the maize protoplast; assay: Maize protoplast transient assay of TraP14-GFP (microscopy); type: cell-based, Zea mays; details: TraP14-GFP fusion; microscopy after 12 hours of incubation
Description: The Trap14v2 chimeric chloroplast transit peptide sequence (SEQ ID NO:8) were cloned upstream of the green fluorescent protein gene and incorporated into construct pDAB109902 (FIG. 4) for testing via the maize protoplast transient in planta assay. The resulting constructs contained a single plant transcription unit (PTU). The first PTU was comprised of the Zea mays Ubiquitin 1 promoter (ZmUbi1 promoter; Christensen, A., Sharrock R., and Quail P., (1992) Maize polyubiquitin genes: structure, thermal perturbation of expression and transcript splicing, and promoter activity following transfer to protoplasts by electroporation, Plant Molecular Biology, 18:675-689), TraP-green fluorescent protein fusion gene (TraP14-GFP; U.S. Pat. No. 7,678,893), and Zea mays Peroxidase 5 3′ untranslated region (ZmPer5 3′UTR; U.S. Pat. No. 6,384,207). The constructs were confirmed via restriction enzyme digestion and sequencing.
Seed of Zea mays var. B104 were surface sterilized by shaking vigorously in 50% Clorox (3% sodium hypochlorite), containing 2-3 drops of Tween 20, for about 20 minutes. […]
Transfection of 100 to 500 μl of protoplasts (1−5×10^5) was completed by adding the protoplasts to a 2 ml microfuge tube containing about 40 μg of plasmid DNA (pDAB106597), at room temperature. […] Fluorescence of GFP was viewed by microscopy after 12 hours of incubation. […]

T2 Arabidopsis = T2 Arabidopsis events response to glyphosate applied postemergence, visual % injury; type: in vivo, Arabidopsis thaliana; details: T2 Arabidopsis single copy events
Description: The second generation plants (T2) of selected T1 Arabidopsis events which contained low copy numbers of the dgt-28 transgene were further characterized for glyphosate tolerance. Glyphosate was applied as described previously. The response of the plants is presented in terms of % visual injury 2 weeks after treatment (WAT). […] An arithmetic mean and standard deviation are presented for each construct used for Arabidopsis transformation. The range in individual response is also indicated in the last column for each rate and transformation. Wild-type, non-transformed Arabidopsis (cv. Columbia) served as a glyphosate sensitive control. In the T2 generation hemizygous and homozygous plants were available for testing for each event and therefore were included for each rate of glyphosate tested. Hemizygous plants contain two different alleles at a locus as compared to homozygous plants which contain the same two alleles at a locus. Variability of response to glyphosate is expected in the T2 generation as a result of the difference in gene dosage for hemizygous as compared to homozygous plants. The variability in response to glyphosate is reflected in the standard deviation and range of response.

Molecule | translocation of GFP into chloroplasts [1] | tolerance to glyphosate (T2 Arabidopsis)
B1 | accumulated within the chloroplasts; also recorded: successfully targeted GFP to maize chloroplasts | 
B2 |  | did not provide robust tolerance to glyphosate
